US20160015827A1 (BIOALLIANCE C V, published 2016)

Experiments:
[1] = target: T1, human folate receptor alpha (FRA) (human, UniProt P15328 25-234); test: flow cytometry on NCI-H2110 cells, 3.3 µg/mL
T1 construct: In the assays FRA is the endogenous protein on FRA-expressing human cancer cell lines (SK-OV-3, OVCAR-3, OVCAR-3B, NCI-H2110, NCI-H292); also called human FRA
Procedure: (§1) 1×10⁵ cells were seeded per well in a v-bottomed 96-well plate and incubated with 50 μl of the unconjugated Abs or the ADCs at titrated concentrations or isotype control antibody human IgG at 10 μg/mL. After 60 minutes of incubation at 4° C., cells were washed once with 200 μl FACS buffer (1×PBS containing 1% FBS), stained with 50 μl of 1 μg/ml goat F(ab′)2-anti-human IgG (H+L)-RPE or goat anti-human IgG-RPE (SOUTHERN BIOTECH®, Cat. No. 2043-09 or 2040-09) in FACS buffer and then incubated at 4° C. for 30 min Cells were washed once with FACS buffer and analyzed by flow cytometer (BD LSR, BD Life Sciences).
(§2) The binding activities of site-specific conjugates of hLK26-Cys variants-Tap18Hr1 were evaluated by flow cytometric analysis in ovarian cancer SK-OV-3 and OVCAR-3B (Table 9-10) and lung cancer NCI-H2110 and NCI-H292 (Table 11-12) cells. The Mean fluorescence intensity (MFI) values in the tables represent binding activity of ADCs at tested concentration. […] The IgG4p variants-Tap18Hr1 conjugates also bind to all the FRA positive cancer cells tested here, but the fluorescent intensities were generally lower than those observed with IgG1 variants. This decrease in binding activity is likely attributed to IgG4 isotype rather than cysteine mutation. Overall, the site-specific conjugated hLK26-Cys variants retain antigen reactivity to the ovarian and lung cancer cells tested.

[2] = target: T1, human folate receptor alpha (FRA); test: flow cytometry on OVCAR-3B cells, 1.1 µg/mL
Procedure: as §1, §2

[3] = target: T1, human folate receptor alpha (FRA); test: flow cytometry on NCI-H292 cells, 3.3 µg/mL
Procedure: as §1, §2

[4] = target: T1, human folate receptor alpha (FRA); test: flow cytometry on SK-OV-3 cells, 1.1 µg/mL
Procedure: as §1, §2

T1 sequence (P15328 25-234 limits assumed): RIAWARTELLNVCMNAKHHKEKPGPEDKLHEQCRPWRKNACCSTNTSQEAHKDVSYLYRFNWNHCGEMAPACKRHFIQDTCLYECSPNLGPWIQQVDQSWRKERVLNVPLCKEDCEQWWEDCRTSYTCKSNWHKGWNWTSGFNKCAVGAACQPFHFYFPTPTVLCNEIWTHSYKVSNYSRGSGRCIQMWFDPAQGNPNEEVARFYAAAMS

Row | Binder | MFI [1] | MFI [2] | MFI [3] | MFI [4]
1 | hLK26-T155C-IgG4p-Tap18Hr1 (antibody, name in EU numbering, Tap18Hr1 linker-drug on the introduced Cys 155 (EU numbering), Site-specific ADC) heavy: not shown light: DIQLTQSPSSLSASVGDRVTITCSVSSSISSNNLHWYQQKPGKAPKPWIYGTSNLASGVPSRFSGSGSGTDYTFTISSLQPEDIATYYCQQWSSYPYMYTFGQGTKVEIKRTVAAPSVFIFPPSDEQLKSGTASVVCLLNNFYPREAKVQWKVDNALQSGNSQESVTEQDSKDSTYSLSSTLTLSKADYEKHKVYACEVTHQGLSSPVTKSFNRGEC | 494 MFI | 806 MFI | 1180 MFI | 1890 MFI
2 | hLK26-IgG1 (antibody, Humanized anti-FRA antibody, human IgG1 / kappa, unconjugated; also called naked Ab hLK26-IgG1; unconjugated hLK26-IgG1) heavy: not shown light: DIQLTQSPSSLSASVGDRVTITCSVSSSISSNNLHWYQQKPGKAPKPWIYGTSNLASGVPSRFSGSGSGTDYTFTISSLQPEDIATYYCQQWSSYPYMYTFGQGTKVEIKRTVAAPSVFIFPPSDEQLKSGTASVVCLLNNFYPREAKVQWKVDNALQSGNSQESVTEQDSKDSTYSLSSTLTLSKADYEKHKVYACEVTHQGLSSPVTKSFNRGEC | – | 1150 MFI | 1460 MFI | –
3 | hLK26-S442C-IgG4p-Tap18Hr1 (antibody, name in EU numbering, Tap18Hr1 linker-drug on the introduced Cys 442 (EU numbering), Site-specific ADC) heavy: not shown light: DIQLTQSPSSLSASVGDRVTITCSVSSSISSNNLHWYQQKPGKAPKPWIYGTSNLASGVPSRFSGSGSGTDYTFTISSLQPEDIATYYCQQWSSYPYMYTFGQGTKVEIKRTVAAPSVFIFPPSDEQLKSGTASVVCLLNNFYPREAKVQWKVDNALQSGNSQESVTEQDSKDSTYSLSSTLTLSKADYEKHKVYACEVTHQGLSSPVTKSFNRGEC | 479 MFI | 769 MFI | 1090 MFI | 1880 MFI
4 | hLK26-L201C-IgG4p-Tap18Hr1 (antibody, name in EU numbering, Tap18Hr1 linker-drug on the introduced Cys 201 (EU numbering), Site-specific ADC with kappa light chain mutant) heavy: not shown light: DIQLTQSPSSLSASVGDRVTITCSVSSSISSNNLHWYQQKPGKAPKPWIYGTSNLASGVPSRFSGSGSGTDYTFTISSLQPEDIATYYCQQWSSYPYMYTFGQGTKVEIKRTVAAPSVFIFPPSDEQLKSGTASVVCLLNNFYPREAKVQWKVDNALQSGNSQESVTEQDSKDSTYSLSSTLTLSKADYEKHKVYACEVTHQGCSSPVTKSFNRGEC | 890 MFI | – | – | 1000 MFI
5 | hLK26-T155C-IgG1-Tap18Hr1 (antibody, name in EU numbering, Tap18Hr1 linker-drug on the introduced Cys 155 (EU numbering), Site-specific ADC) heavy: not shown light: DIQLTQSPSSLSASVGDRVTITCSVSSSISSNNLHWYQQKPGKAPKPWIYGTSNLASGVPSRFSGSGSGTDYTFTISSLQPEDIATYYCQQWSSYPYMYTFGQGTKVEIKRTVAAPSVFIFPPSDEQLKSGTASVVCLLNNFYPREAKVQWKVDNALQSGNSQESVTEQDSKDSTYSLSSTLTLSKADYEKHKVYACEVTHQGLSSPVTKSFNRGEC | 649 MFI | 1060 MFI | 1450 MFI | 2470 MFI
6 | hLK26-T199C-IgG4p-Tap18Hr1 (antibody, name in EU numbering, Tap18Hr1 linker-drug on the introduced Cys 199 (EU numbering), Site-specific ADC) heavy: not shown light: DIQLTQSPSSLSASVGDRVTITCSVSSSISSNNLHWYQQKPGKAPKPWIYGTSNLASGVPSRFSGSGSGTDYTFTISSLQPEDIATYYCQQWSSYPYMYTFGQGTKVEIKRTVAAPSVFIFPPSDEQLKSGTASVVCLLNNFYPREAKVQWKVDNALQSGNSQESVTEQDSKDSTYSLSSTLTLSKADYEKHKVYACEVTHQGLSSPVTKSFNRGEC | 898 MFI | – | – | 966 MFI
7 | hLK26-S442C-IgG1-Tap18Hr1 (antibody, name in EU numbering, Tap18Hr1 linker-drug on the introduced Cys 442 (EU numbering), Site-specific ADC) heavy: not shown light: DIQLTQSPSSLSASVGDRVTITCSVSSSISSNNLHWYQQKPGKAPKPWIYGTSNLASGVPSRFSGSGSGTDYTFTISSLQPEDIATYYCQQWSSYPYMYTFGQGTKVEIKRTVAAPSVFIFPPSDEQLKSGTASVVCLLNNFYPREAKVQWKVDNALQSGNSQESVTEQDSKDSTYSLSSTLTLSKADYEKHKVYACEVTHQGLSSPVTKSFNRGEC | 605 MFI | 967 MFI | 1280 MFI | 2080 MFI
8 | hLK26-T206C-IgG1-Tap18Hr1 (antibody, name in EU numbering, Tap18Hr1 linker-drug on the introduced Cys 206 (EU numbering), Site-specific ADC with kappa light chain mutant) heavy: not shown light: DIQLTQSPSSLSASVGDRVTITCSVSSSISSNNLHWYQQKPGKAPKPWIYGTSNLASGVPSRFSGSGSGTDYTFTISSLQPEDIATYYCQQWSSYPYMYTFGQGTKVEIKRTVAAPSVFIFPPSDEQLKSGTASVVCLLNNFYPREAKVQWKVDNALQSGNSQESVTEQDSKDSTYSLSSTLTLSKADYEKHKVYACEVTHQGLSSPVCKSFNRGEC | 1180 MFI | – | – | 1270 MFI
